Positions count from the first letter of the chain named.
B1: CAP256V2LS (antibody, V domains shown)
VH: QVQLVESGGGVVQPGTSLRLSCAASQFRFDGYGMHWVRQAPGKGLEWVASISHDGIKKYHAEKVWGRFTISRDNSKNTLYLQMNSLRPEDTALYYCAKDLREDECEEWWSDYYDFGAQLPCAKSRGGLVGIADNWGQGTMVTVSS
VL: QSVLTQPPSVSAAPGQKVTISCSGNTSNIGNNFVSWYQQRPGRAPQLLIYETDKRPSGIPDRFSASKSGTSGTLAITGLQTGDEADYYCATWAASLSSARVFGTGTQVIVLG
B2: CAP256V2LS-J3-5 (bispecific antibody)
heavy chain: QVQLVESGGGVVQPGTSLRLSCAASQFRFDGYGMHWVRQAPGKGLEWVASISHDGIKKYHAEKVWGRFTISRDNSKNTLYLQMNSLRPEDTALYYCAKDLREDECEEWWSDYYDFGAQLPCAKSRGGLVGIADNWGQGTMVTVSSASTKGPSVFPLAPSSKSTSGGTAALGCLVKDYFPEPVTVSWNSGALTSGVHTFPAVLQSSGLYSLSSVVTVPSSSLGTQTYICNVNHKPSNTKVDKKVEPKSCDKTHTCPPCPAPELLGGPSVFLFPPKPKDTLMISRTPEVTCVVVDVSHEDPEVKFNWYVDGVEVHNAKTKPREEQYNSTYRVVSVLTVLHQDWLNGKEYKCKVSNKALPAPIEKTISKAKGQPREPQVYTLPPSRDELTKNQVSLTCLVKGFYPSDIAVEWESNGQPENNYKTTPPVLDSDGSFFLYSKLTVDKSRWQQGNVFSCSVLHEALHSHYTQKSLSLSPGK
light chain (J3 VHH, linker, CAP256V2LS LC): EVQLVESGGGLVQAGGFLRLSCELRGSIFNQYAMAWFRQAPGKEREFVAGMGAVPHYGEFVKGRFTISRDNAKSTVYLQMSSLKPEDTAIYFCARSKSTYISYNSNGYDYWGRGTQVTVSSDKTHTGDKTHTQSVLTQPPSVSAAPGQKVTISCSGNTSNIGNNFVSWYQQRPGRAPQLLIYETDKRPSGIPDRFSASKSGTSGTLAITGLQTGDEADYYCATWAASLSSARVFGTGTQVIVLGQPKVNPTVTLFPPSSEELQANKATLVCLISDFYPGAVTVAWKADSSPVKAGVETTTPSKQSNNKYAASSYLSLTPEQWKSHRSYSCQVTHEGSTVEKTVAPTECS
B3: CAP256V2LS-J3-4 (bispecific antibody)
heavy chain: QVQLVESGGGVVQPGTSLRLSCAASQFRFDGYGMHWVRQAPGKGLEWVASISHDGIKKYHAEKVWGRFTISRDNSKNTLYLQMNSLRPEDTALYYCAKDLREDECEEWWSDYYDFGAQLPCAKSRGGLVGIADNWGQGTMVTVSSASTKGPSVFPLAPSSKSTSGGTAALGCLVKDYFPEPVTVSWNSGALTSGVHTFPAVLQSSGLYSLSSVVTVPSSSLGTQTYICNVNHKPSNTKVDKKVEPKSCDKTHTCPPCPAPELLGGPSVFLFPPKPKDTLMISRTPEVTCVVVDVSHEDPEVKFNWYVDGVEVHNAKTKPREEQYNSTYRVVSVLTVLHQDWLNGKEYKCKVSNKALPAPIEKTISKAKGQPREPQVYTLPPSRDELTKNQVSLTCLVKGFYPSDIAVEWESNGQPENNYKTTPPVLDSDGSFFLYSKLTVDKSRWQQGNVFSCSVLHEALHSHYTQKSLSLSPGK
light chain (J3 VHH, linker, CAP256V2LS LC): EVQLVESGGGLVQAGGFLRLSCELRGSIFNQYAMAWFRQAPGKEREFVAGMGAVPHYGEFVKGRFTISRDNAKSTVYLQMSSLKPEDTAIYFCARSKSTYISYNSNGYDYWGRGTQVTVSSDKTHTQSVLTQPPSVSAAPGQKVTISCSGNTSNIGNNFVSWYQQRPGRAPQLLIYETDKRPSGIPDRFSASKSGTSGTLAITGLQTGDEADYYCATWAASLSSARVFGTGTQVIVLGQPKVNPTVTLFPPSSEELQANKATLVCLISDFYPGAVTVAWKADSSPVKAGVETTTPSKQSNNKYAASSYLSLTPEQWKSHRSYSCQVTHEGSTVEKTVAPTECS
B4: CAP256V2LS-VRC01-6 (bispecific antibody)
heavy chain: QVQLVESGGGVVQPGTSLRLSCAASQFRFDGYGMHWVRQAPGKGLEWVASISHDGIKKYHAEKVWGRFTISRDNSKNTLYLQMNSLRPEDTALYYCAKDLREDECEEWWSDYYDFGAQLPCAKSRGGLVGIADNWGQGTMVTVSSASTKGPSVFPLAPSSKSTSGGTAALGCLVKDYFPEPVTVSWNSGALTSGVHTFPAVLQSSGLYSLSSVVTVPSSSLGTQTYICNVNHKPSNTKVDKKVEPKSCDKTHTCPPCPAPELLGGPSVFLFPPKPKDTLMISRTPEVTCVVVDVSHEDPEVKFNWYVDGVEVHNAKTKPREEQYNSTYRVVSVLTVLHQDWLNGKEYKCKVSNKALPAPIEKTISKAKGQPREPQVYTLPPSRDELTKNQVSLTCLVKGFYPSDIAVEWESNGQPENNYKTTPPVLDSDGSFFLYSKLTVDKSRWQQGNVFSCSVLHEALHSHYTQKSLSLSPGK
light chain (VRC01 scFv, linker, CAP256V2LS LC): QVQLVQSGGQMKKPGESMRISCRASGYEFIDCTLNWIRLAPGKRPEWMGWLKPRGGAVNYARPLQGRVTMTRDVYSDTAFLELRSLTVDDTAVYFCTRGKNCDYNWDFEHWGRGTPVIVSSGGGGSGGGGSGGGGSLTQSPGTLSLSPGETAIISCRTSQYGSLAWYQQRPGQAPRLVIYSGSTRAAGIPDRFSGSRWGPDYNLTISNLESGDFGVYYCQQYEFFGQGTKVQVDKTHTDKTHTDKTHTQSVLTQPPSVSAAPGQKVTISCSGNTSNIGNNFVSWYQQRPGRAPQLLIYETDKRPSGIPDRFSASKSGTSGTLAITGLQTGDEADYYCATWAASLSSARVFGTGTQVIVLGQPKVNPTVTLFPPSSEELQANKATLVCLISDFYPGAVTVAWKADSSPVKAGVETTTPSKQSNNKYAASSYLSLTPEQWKSHRSYSCQVTHEGSTVEKTVAPTECS
B5: CAP256V2LS-VRC01-2 (bispecific antibody)
heavy chain: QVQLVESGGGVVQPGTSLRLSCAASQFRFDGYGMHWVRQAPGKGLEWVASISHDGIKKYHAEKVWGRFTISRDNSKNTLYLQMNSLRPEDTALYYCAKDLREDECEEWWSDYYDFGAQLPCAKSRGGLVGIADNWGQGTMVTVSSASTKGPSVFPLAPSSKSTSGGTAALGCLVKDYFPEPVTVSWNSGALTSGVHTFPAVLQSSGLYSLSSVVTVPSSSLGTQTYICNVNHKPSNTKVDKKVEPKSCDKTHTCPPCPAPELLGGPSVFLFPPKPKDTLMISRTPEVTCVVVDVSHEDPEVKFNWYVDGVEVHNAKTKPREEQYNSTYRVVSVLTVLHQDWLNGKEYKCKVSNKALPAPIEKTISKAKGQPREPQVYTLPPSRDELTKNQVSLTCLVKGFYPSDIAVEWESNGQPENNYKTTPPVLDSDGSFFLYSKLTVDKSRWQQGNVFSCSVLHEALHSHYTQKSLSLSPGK
light chain (VRC01 scFv, linker, CAP256V2LS LC): QVQLVQSGGQMKKPGESMRISCRASGYEFIDCTLNWIRLAPGKRPEWMGWLKPRGGAVNYARPLQGRVTMTRDVYSDTAFLELRSLTVDDTAVYFCTRGKNCDYNWDFEHWGRGTPVIVSSGGGGSGGGGSGGGGSLTQSPGTLSLSPGETAIISCRTSQYGSLAWYQQRPGQAPRLVIYSGSTRAAGIPDRFSGSRWGPDYNLTISNLESGDFGVYYCQQYEFFGQGTKVQVGGSGGGGSGGQSVLTQPPSVSAAPGQKVTISCSGNTSNIGNNFVSWYQQRPGRAPQLLIYETDKRPSGIPDRFSASKSGTSGTLAITGLQTGDEADYYCATWAASLSSARVFGTGTQVIVLGQPKVNPTVTLFPPSSEELQANKATLVCLISDFYPGAVTVAWKADSSPVKAGVETTTPSKQSNNKYAASSYLSLTPEQWKSHRSYSCQVTHEGSTVEKTVAPTECS
B6: CAP256V2LS-VRC01-5 (bispecific antibody)
heavy chain: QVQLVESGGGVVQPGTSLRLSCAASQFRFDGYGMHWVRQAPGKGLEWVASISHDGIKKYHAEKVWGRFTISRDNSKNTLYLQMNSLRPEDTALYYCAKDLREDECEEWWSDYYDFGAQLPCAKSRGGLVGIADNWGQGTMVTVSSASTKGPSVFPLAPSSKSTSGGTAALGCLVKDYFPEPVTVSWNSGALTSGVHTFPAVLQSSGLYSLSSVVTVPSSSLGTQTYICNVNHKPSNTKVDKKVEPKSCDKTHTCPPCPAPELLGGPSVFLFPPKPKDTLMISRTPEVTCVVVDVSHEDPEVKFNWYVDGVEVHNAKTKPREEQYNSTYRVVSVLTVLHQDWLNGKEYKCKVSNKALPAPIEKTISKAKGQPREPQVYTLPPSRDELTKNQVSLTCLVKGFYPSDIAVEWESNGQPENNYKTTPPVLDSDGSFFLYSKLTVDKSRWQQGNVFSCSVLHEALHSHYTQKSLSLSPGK
light chain (VRC01 scFv, linker, CAP256V2LS LC): B5 light chain (VRC01 scFv, linker, CAP256V2LS LC) with G234D, G235K, S236T, G237H, G238T, G239D, G240K, S241T, G242H, G243T
B7: CAP256V2LS-VRC01-1 (bispecific antibody)
heavy chain: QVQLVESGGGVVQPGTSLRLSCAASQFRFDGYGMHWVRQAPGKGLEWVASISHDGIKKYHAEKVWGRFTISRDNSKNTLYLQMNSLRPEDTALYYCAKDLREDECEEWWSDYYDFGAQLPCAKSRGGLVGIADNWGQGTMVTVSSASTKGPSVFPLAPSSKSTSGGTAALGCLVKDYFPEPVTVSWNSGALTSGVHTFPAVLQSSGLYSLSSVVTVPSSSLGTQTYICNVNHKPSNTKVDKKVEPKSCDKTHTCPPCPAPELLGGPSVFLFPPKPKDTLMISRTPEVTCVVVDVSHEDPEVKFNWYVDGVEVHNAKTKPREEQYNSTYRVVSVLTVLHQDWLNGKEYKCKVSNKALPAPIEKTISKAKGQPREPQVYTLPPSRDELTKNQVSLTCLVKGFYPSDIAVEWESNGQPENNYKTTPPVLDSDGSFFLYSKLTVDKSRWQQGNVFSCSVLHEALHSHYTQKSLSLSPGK
light chain (VRC01 scFv, linker, CAP256V2LS LC): QVQLVQSGGQMKKPGESMRISCRASGYEFIDCTLNWIRLAPGKRPEWMGWLKPRGGAVNYARPLQGRVTMTRDVYSDTAFLELRSLTVDDTAVYFCTRGKNCDYNWDFEHWGRGTPVIVSSGGGGSGGGGSGGGGSLTQSPGTLSLSPGETAIISCRTSQYGSLAWYQQRPGQAPRLVIYSGSTRAAGIPDRFSGSRWGPDYNLTISNLESGDFGVYYCQQYEFFGQGTKVQVGGSGGQSVLTQPPSVSAAPGQKVTISCSGNTSNIGNNFVSWYQQRPGRAPQLLIYETDKRPSGIPDRFSASKSGTSGTLAITGLQTGDEADYYCATWAASLSSARVFGTGTQVIVLGQPKVNPTVTLFPPSSEELQANKATLVCLISDFYPGAVTVAWKADSSPVKAGVETTTPSKQSNNKYAASSYLSLTPEQWKSHRSYSCQVTHEGSTVEKTVAPTECS
B8: CAP256V2LS-VRC01-4 (bispecific antibody)
heavy chain: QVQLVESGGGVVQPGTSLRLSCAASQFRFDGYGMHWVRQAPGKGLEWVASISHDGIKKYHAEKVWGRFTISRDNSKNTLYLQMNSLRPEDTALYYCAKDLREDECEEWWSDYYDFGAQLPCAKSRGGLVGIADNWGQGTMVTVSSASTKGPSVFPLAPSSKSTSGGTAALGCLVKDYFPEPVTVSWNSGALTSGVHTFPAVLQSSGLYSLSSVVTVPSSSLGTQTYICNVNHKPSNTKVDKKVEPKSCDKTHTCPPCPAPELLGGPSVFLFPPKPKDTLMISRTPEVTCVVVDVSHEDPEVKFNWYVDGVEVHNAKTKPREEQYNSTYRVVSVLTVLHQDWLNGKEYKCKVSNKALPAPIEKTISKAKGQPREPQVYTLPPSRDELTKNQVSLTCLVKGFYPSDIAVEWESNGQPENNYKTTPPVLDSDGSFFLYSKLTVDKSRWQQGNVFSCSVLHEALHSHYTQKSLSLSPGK
light chain (VRC01 scFv, linker, CAP256V2LS LC): B7 light chain (VRC01 scFv, linker, CAP256V2LS LC) with G234D, G235K, S236T, G237H, G238T
B9: CAP256V2LS-VRC01-3 (bispecific antibody)
heavy chain: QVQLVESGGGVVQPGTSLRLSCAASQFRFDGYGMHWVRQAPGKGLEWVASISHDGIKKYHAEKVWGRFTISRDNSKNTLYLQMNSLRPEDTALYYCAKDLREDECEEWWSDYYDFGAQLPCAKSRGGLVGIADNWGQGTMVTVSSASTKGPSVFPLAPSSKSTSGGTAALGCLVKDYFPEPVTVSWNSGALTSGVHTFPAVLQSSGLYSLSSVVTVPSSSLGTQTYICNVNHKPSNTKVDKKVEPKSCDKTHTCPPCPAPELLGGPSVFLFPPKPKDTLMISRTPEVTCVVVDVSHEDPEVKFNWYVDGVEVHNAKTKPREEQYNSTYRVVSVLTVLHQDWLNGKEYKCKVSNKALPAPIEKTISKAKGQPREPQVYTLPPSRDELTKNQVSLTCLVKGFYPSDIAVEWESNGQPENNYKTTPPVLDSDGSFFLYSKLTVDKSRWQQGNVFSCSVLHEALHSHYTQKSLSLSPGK
light chain (VRC01 scFv, linker, CAP256V2LS LC): QVQLVQSGGQMKKPGESMRISCRASGYEFIDCTLNWIRLAPGKRPEWMGWLKPRGGAVNYARPLQGRVTMTRDVYSDTAFLELRSLTVDDTAVYFCTRGKNCDYNWDFEHWGRGTPVIVSSGGGGSGGGGSGGGGSLTQSPGTLSLSPGETAIISCRTSQYGSLAWYQQRPGQAPRLVIYSGSTRAAGIPDRFSGSRWGPDYNLTISNLESGDFGVYYCQQYEFFGQGTKVQVGGSGGGGSGGGGSGGQSVLTQPPSVSAAPGQKVTISCSGNTSNIGNNFVSWYQQRPGRAPQLLIYETDKRPSGIPDRFSASKSGTSGTLAITGLQTGDEADYYCATWAASLSSARVFGTGTQVIVLGQPKVNPTVTLFPPSSEELQANKATLVCLISDFYPGAVTVAWKADSSPVKAGVETTTPSKQSNNKYAASSYLSLTPEQWKSHRSYSCQVTHEGSTVEKTVAPTECS

The binders below were run against CAP256 wk34c80 (HIV-1) (assay: cell-based or functional assay).

Binder	% neutralization, single point, Env-pseudotyped virus on TZM-bl [%]
B1	100
B2	100
B3	100
B4	98
B5	41
B6	67
B7	77
B8	98
B9	99

These binders were tested against HIV-1 Env of strain WITO.33 (Env-pseudotyped virus) (HIV-1) (assay: cell-based or functional assay).

Binder	% neutralization, single point, Env-pseudotyped virus on TZM-bl [%]
B1	0
B2	62
B3	86
B4	0
B5	38
B6	0
B7	0
B8	0
B9	0

From patent publication US20250197482A1 (UNITED STATES OF AMERICA AS REPRESENTED BY THE SECRETARY …, published 2025)
